Consider 41 sequences from the nanobody polyreactivity screen of Harvey et al. (2022).

This data set can be described thus: yeast display, Sf9 membrane polyspecificity reagent, FACS + sequencing; frameworks hold sequencing errors. An outline of the steps: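 Galactose induction of a Saccharomyces cerevisiae BJ5465 synthetic nanobody display library ran 36–48 hours. The cells were then stained for 1 hour at 4 °C with 10% biotinylated, detergent-solubilized Sf9 membrane reagent, pulled down on streptavidin microbeads and FACS-sorted into low and high (top ~1%) gates on expression and reagent-binding fluorescence. Labels for polyreactivity follow the gate of origin.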
Regarding “QVQLVESGGGLVQAGGSLRLSCAASGRISVVNAMGWYRQAPGKERELVATINRGGSTYADSVKGRFTISRDNAKNTVYLQMNSLKPEDTAVYYCAATSFSVRFTRYYYWGQGTQVTVSS”, the “polyreactivity (PSR sort gate)” value was “high polyreactivity”.

With “QVQLVESGGGLVQAGGSLRLSCAASGRISYRNAMGWYRQAPGKERELVATITNGGSTYYADSVKGRFTISRDNAKNTVYLQMNSLKPEDTAVYYCAKEVWNWGPYYYWGQGTQVTVSS”, the “polyreactivity (PSR sort gate)” value is recorded as “low polyreactivity”.

Turning to “QVQLVESGGGLVQAGGSLRLSCAASGRITFSHNTMGGSRQAPGKERELVAAISSGGRTNYADSVKGRFTISRDNAKNTVYLQMNSLKPEDTAVYYCARESHYDFIYDGMDYWGQGTQVTVSS”, the “polyreactivity (PSR sort gate)” value is “low polyreactivity”.

“QVQLVESGGGLVQAGGSLRLSCAASGRIVCYYDMGWSRQAHGKERELVATITFGGGSTYYADSVKGRFTISRDNAKNTVYLQMNSLKPEDTAVYYCAADSGYLGIYGDEYSSGQGTQVTVSS”: the “polyreactivity (PSR sort gate)” value is reported as “low polyreactivity”.

As for “QVQLVESGGGLVQAGGSLRLSCAASGRIVGYAMGWYRQAPGKERELVAAITGSTGSTYYADSVKGRFTISRDNAKNTVYLQMNSLKPEDTAVYYCATKYGRYVYYNHVTWMYYWGQGTQVTVSS”, the “polyreactivity (PSR sort gate)” value is “high polyreactivity”.

As for “QVQLVESGGGLVQAGGSLRLSCAASGRIVHQYAMGWNRQAPGKERELVAAITTRGTSTYYADSVKGRFTISRDNAKNTVYLQMNSLKPEDTAVYYCAAKFFGSVGHVAGDYWGQGTLVTVSS”, the “polyreactivity (PSR sort gate)” value is “high polyreactivity”.

On to “QVQLVESGGGLVQAGGSLRLSCAASGRIVRYYTMGWYRQAPGKEREFVAAITLSGGRTYYADSVKGRFTISRDNAKNTVYLQMNSLKPEDTAVYYCAKRYVWGDKRYWQGYDYWGQGTQVSVSS”, for which the “polyreactivity (PSR sort gate)” value is reported as “high polyreactivity”.

For “QVQLVESGGGLVQAGGSLRLSCAASGRIVSKYALGWYRQAPGKERELVAAISNGGSTNYADSVKGRFTISRDNAKNTVYLQMNSRKPEDTAVYYCAAGWPARYEEGYNYWGQGTQVTVST”, the “polyreactivity (PSR sort gate)” value is reported as “low polyreactivity”.

Turning to “QVQLVESGGGLVQAGGSLRLSCAASGRIVSRYAMGCYRQAPGKERELVADISSSGGSTYYADSVKGRFTISRDNAKNTVYLQMNSMKPEDTAVYDCAVRKKRQYTGDYWGQGTQETVSS”, the “polyreactivity (PSR sort gate)” value is listed as “high polyreactivity”.

Regarding “QVQLVESGGGLVQAGGSLRLSCAASGRIVTDSAMGWYSQAPGKDREFVAAIRRSGGSTYYAGCVKGRCTISRDTANNTVYLQMNSLKPEDTAVYYCAARGATSYYIFHSWGQGTQVTVSS”, the “polyreactivity (PSR sort gate)” value is “high polyreactivity”.

Consider “QVQLVESGGGLVQAGGSLRLSCAASGRIVVGYVMGWYRQSPGKERELVADIRSRGDSTYYADSVKGRFTISRDNAKNTVYLQMNSLKPEDTAVYYCNVLGYSYWGQGTQVTVSS”, for which the “polyreactivity (PSR sort gate)” value was “high polyreactivity”.

Consider “QVQLVESGGGLVQAGGSLRLSCAASGRIVVYNVMGGYRQAPGKERELVAAISWGTGSTYADSVKGRFTISRDNAKNTVYIQMNSLKPEDTAVYYCAADSFIPPYDHWGQGTQVTVSS”, for which the “polyreactivity (PSR sort gate)” value was “low polyreactivity”.

As to “QVQLVESGGGLVQAGGSLRLSCAASGRIVWFYTMGWYRQAPGKERELVAAISDSAGSTYYADSVKGRFTISRDNAKNTVYLQMNSLKPEDTAVYYCAADGWWQYDYWGQGTQVTVSS”, the “polyreactivity (PSR sort gate)” value is “low polyreactivity”.

With “QVQLVESGGGLVQAGGSLRLSCAASGRIYCGYTMGWYRPAPGKERELDATITGNGAITRYADSVKGRFTISRDNAKYTVYLQMTSLKPEDTAVYYCAADSGREPKGPFRLTYWGQGTQVTVSS”, the “polyreactivity (PSR sort gate)” value is reported as “high polyreactivity”.

On to “QVQLVESGGGLVQAGGSLRLSCAASGRIYDDNAMGWYRQAPGKERELVAAISSGDSTKYADSVKGRFTISRDNAKNTVYLQMNSLKPDDTAVYSCAAERNHGLVGSESVGRNDYWGPGTQVTVSS”, for which the “polyreactivity (PSR sort gate)” value is on record as “low polyreactivity”.

For “QVQLVESGGGLVQAGGSLRLSCAASGRIYDYMAWYRQAPGKERELVAAISWRGGRTYYADSVKGRFTISRDNAKNTVYLQMNSLKPEDTAVYYCAAKTTYRYGYWGQGSQVTVSS”, the “polyreactivity (PSR sort gate)” value is given as “high polyreactivity”.

Turning to “QVQLVESGGGLVQAGGSLRLSCAASGRIYDYYTMGWYRQAPGKERELVAAITWIGGSTYYADSVKGRFTISRDNAKNTVYLQMNSLKPEDTAVYYWNAEGTALPYRADTVGGYYYWGQGTQVTVSS”, the “polyreactivity (PSR sort gate)” value is on record as “low polyreactivity”.

Regarding “QVQLVESGGGLVQAGGSLRLSCAASGRIYGGYAMGWYRQAPGKERELVAAISSRGGSTYYADSVKGRFTISRDNAKNTVYFQMNSLKPEDTAVYYFADDGRVKGWGQGTQVTVSS”, the “polyreactivity (PSR sort gate)” value is “high polyreactivity”.

Consider “QVQLVESGGGLVQAGGSLRLSCAASGRIYGIYAMGWYRQAPGKERDLVARITGGGSTNYADSVKGRFTISRDNAKYTVYLQMNSLKPEDTAVYYCAATVRRIVGNITRYDYWGQGTQVTVSS”, for which the “polyreactivity (PSR sort gate)” value is on record as “low polyreactivity”.

Consider “QVQLVESGGGLVQAGGSLRLSCAASGRIYIGNAMGWYRQAPGKERELVAAISKRGGSTYYADSVKGRFTISRDNAKNTVYLQMKSLKAEDTAVYYCIKESLYREFDYLGQGTQVTVSS”, for which the “polyreactivity (PSR sort gate)” value is on record as “low polyreactivity”.

For “QVQLVESGGGLVQAGGSLRLSCAASGRIYNYYAMGWYIPAPGKERELVAAISSSGGRTYYADSVKGRFTISRDNAKNTVYLQMNSLKPEDTAVYYCAAYDSLRYSTYDYWGQGTQVTVSS”, the “polyreactivity (PSR sort gate)” value was “high polyreactivity”.

With “QVQLVESGGGLVQAGGSLRLSCAASGRIYPAYAMGWSRQAPGKERELVASIRRGGITYADSVKGRFTISRDNAKNTVYLQMNSLKPEDTAVYYCNADYRGWGYHMDYWGQGTQVTVSS”, the “polyreactivity (PSR sort gate)” value is recorded as “low polyreactivity”.

Consider “QVQLVESGGGLVQAGGSLRLSCAASGRIYPYYDMGWYRQAPGKERELVAAITSGTGTYYADSGKGRVTLSRDNAKTTVYFQMYSLKPEDTAVYYCNARRYLRGYWGQGTQVTLSS”, for which the “polyreactivity (PSR sort gate)” value was “low polyreactivity”.

Regarding “QVQLVESGGGLVQAGGSLRLSCAASGRIYRGYAMGWYRQAPRKERELFARITSGGRTYYADSVKGRFTISRDNAMNTVYLQMISLKPEDTAVYYCATVGGGYDERHNYWGQWTQVTVSS”, the “polyreactivity (PSR sort gate)” value was “high polyreactivity”.

As for “QVQLVESGGGLVQAGGSLRLSCAASGRIYRYYAMGWYRQAPGKEREFVAAISYRGASTFYADSVKGRFTISRDNAKNTVYLQMNSLKPEDTAVYYCATDTRIRYQGNPYDYWGQGTQVTVSS”, the “polyreactivity (PSR sort gate)” value is on record as “high polyreactivity”.

“QVQLVESGGGLVQAGGSLRLSCAASGRIYSYYAMGWYRQAPGKERELVAGIRSGGSTNYADSVKGRFTISRDNAKNTVYLQMNSLKPEDTAVYYCAARWTRWTSKRFEYWGQGTQVTVSS”: the “polyreactivity (PSR sort gate)” value is recorded as “high polyreactivity”.

Take “QVQLVESGGGLVQAGGSLRLSCAASGRIYTHYAMGWYRQAPGKERELVAAISYRGGSTYYADSVKGRFTISRDNAKNTVYLQMNRLKPEATAVYYCNKYRFVYSLDDYWGQGIQVTVSS”: the “polyreactivity (PSR sort gate)” value is listed as “high polyreactivity”.

On to “QVQLVESGGGLVQAGGSLRLSCAASGRIYVIYGMGWYRQAPGKERELVATISWSGSSTSYADSVKGRFTISRDNAKNTVYLQMNSLKHEDTAVYYCNAPVQSETFDYWGQGTQVTVSS”, for which the “polyreactivity (PSR sort gate)” value was “high polyreactivity”.

Regarding “QVQLVESGGGLVQAGGSLRLSCAASGRIYVNAMGWYRQAPGKERELVAAIRSGGSTNYADSVKGRFTISRDNAKNTVYLQMNSLKPEDTAVYYCNARRRDYRHWYDYWGQGTQVTVSS”, the “polyreactivity (PSR sort gate)” value is “high polyreactivity”.

“QVQLVESGGGLVQAGGSLRLSCAASGRIYWNDMGWYRQAPGKERELVAAISWGGDRTYYADSVKGRFTISRDNAKNSFYLQMNSLKPEDTAVYYFNAPGYLTYDHSYDYWGQGTQVTVSS”: the “polyreactivity (PSR sort gate)” value is recorded as “low polyreactivity”.

Consider “QVQLVESGGGLVQAGGSLRLSCAASGRIYWNTMGWYIQAPGKERELVASISTGGGRTYYADSVKGRFTISRDNAKNTVYLQMNSLKPEDTAVYYCAVRSYGHGFDYWGQGTQVTVSS”, for which the “polyreactivity (PSR sort gate)” value was “high polyreactivity”.

As for “QVQLVESGGGLVQAGGSLRLSCAASGRIYWNTMGWYRQAPWKEREMVASISTGCGRTYYADSVKGRFTISRDNAKNTVYLQMHSLKPEDTSVYYCNAVRTVWYRYEYGYWGQGTQVTVSS”, the “polyreactivity (PSR sort gate)” value was “high polyreactivity”.

“QVQLVESGGGLVQAGGSLRLSCAASGRIYWSYDMGWNRQAPVKERELVASITSDGSTNYADSVKGRFTISRDNAKNTVYLQMNSLKPEDTAVYYCAARPYKYDPFAQGDGGKYDYWGQGTQVTVSS”: the “polyreactivity (PSR sort gate)” value was “low polyreactivity”.

As to “QVQLVESGGGLVQAGGSLRLSCAASGRIYYQYAMGWYRQAPGKERELVAAITRGGNTYYADSVKGRFTISRDNAKNTVYLQMNSLKPEDTAVYYCNARWHTTGYRYDYWGQGTQVTVSS”, the “polyreactivity (PSR sort gate)” value is reported as “high polyreactivity”.

“QVQLVESGGGLVQAGGSLRLSCAASGRLFYSYAMGWYRQAPGKERELVAAIGRGGGTTYADSVKGRFTISRDNAKNTVYLQMNSLKPEDTAVYYCAADWHSTPRHTMDYWGQGTQVTVSS”: the “polyreactivity (PSR sort gate)” value is “low polyreactivity”.

As for “QVQLVESGGGLVQAGGSLRLSCAASGRNFAGYAMLWYRQAPGKERELVATISSGGSTYYADSVKGRFTISRDNAKNTVYLQKNSLKPEDTAVYYCAAEYGTRQYSSYYKLFNYWGQGTQVTVSS”, the “polyreactivity (PSR sort gate)” value is “low polyreactivity”.

Turning to “QVQLVESGGGLVQAGGSLRLSCAASGRNFCVYAMGWYRHDHGKERELVAAISYDDGDTFYADSVKGRFTISRDNAKNTVYLQMNSLKPDDTAVYYCDAEGYSYIQSDLDYCGQGTQVTVSS”, the “polyreactivity (PSR sort gate)” value is listed as “high polyreactivity”.

Regarding “QVQLVESGGGLVQAGGSLRLSCAASGRNFGRNGMGWYRQAPGKERELVAAISIGDSTTYADSVKGRFTISRDNAKNTVYLQMNSLKPEDTAVFYCAAELERYPVWEYRGKYDYWGQGTQVTVSS”, the “polyreactivity (PSR sort gate)” value is “low polyreactivity”.

Take “QVQLVESGGGLVQAGGSLRLSCAASGRNFLPNAMGWSRPAPGKERELVAAITSGGGSTYYADSVKGRFTISRDKAKNTVYLQMNSLKPEDTAVYYCAKQPYRGKYYYWGQGTQVTVSS”: the “polyreactivity (PSR sort gate)” value is recorded as “high polyreactivity”.

Turning to “QVQLVESGGGLVQAGGSLRLSCAASGRNFPGYARGWYRQAPGKEGELVAGINWSSGSTYYADSVKGRFTISRDNAKNTVYLQMNSLKPEDTAVYYCNALGYWRSTVHYVVGEVDYWGQGTQVTVSS”, the “polyreactivity (PSR sort gate)” value is reported as “low polyreactivity”.

Take “QVQLVESGGGLVQAGGSLRLSCAASGRNFPYYAMGWYRQAPGKERELVAAISSSGGRTYYADSVKGRFTISRDNAKNTVYLQMNSLIPEDTAVYYCNVDAWYPYQGFLVGYYYWGQGTQVTVSS”: the “polyreactivity (PSR sort gate)” value was “low polyreactivity”.
